The assay concerns the target LcrG, full length (Yersinia pseudotuberculosis) (UniProt P69958). Nature of the assay: ITC.

Sequence of LcrG, full length (Yersinia pseudotuberculosis) (P69958 whole entry): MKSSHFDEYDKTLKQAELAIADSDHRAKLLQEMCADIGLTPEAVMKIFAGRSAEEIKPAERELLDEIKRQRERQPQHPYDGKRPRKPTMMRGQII
Sequence of LcrV, full length (P23994 whole entry): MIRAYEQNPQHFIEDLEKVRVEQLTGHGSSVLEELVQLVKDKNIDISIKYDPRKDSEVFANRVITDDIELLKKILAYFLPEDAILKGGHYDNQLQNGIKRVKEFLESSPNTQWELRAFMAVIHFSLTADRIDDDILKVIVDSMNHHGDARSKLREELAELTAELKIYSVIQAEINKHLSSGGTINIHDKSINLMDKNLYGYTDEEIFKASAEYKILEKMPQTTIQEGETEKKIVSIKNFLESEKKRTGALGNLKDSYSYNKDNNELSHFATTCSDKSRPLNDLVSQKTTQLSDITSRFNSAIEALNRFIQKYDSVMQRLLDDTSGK

In turn, “LcrV, full length (from UniProt P23994 1-326) (natural protein)” displayed a stoichiometry N of 1.

The record behind these values is PMC12720783.
